Consider 1 substance from US20040126819A1.

The target of the assay is human wild type c-RET expressed in 3T3 fibroblasts (human) (UniProt P07949). Nature of the assay: cell-based or functional assay.
Chain of human wild type c-RET expressed in 3T3 fibroblasts (human) (P07949 29-1114): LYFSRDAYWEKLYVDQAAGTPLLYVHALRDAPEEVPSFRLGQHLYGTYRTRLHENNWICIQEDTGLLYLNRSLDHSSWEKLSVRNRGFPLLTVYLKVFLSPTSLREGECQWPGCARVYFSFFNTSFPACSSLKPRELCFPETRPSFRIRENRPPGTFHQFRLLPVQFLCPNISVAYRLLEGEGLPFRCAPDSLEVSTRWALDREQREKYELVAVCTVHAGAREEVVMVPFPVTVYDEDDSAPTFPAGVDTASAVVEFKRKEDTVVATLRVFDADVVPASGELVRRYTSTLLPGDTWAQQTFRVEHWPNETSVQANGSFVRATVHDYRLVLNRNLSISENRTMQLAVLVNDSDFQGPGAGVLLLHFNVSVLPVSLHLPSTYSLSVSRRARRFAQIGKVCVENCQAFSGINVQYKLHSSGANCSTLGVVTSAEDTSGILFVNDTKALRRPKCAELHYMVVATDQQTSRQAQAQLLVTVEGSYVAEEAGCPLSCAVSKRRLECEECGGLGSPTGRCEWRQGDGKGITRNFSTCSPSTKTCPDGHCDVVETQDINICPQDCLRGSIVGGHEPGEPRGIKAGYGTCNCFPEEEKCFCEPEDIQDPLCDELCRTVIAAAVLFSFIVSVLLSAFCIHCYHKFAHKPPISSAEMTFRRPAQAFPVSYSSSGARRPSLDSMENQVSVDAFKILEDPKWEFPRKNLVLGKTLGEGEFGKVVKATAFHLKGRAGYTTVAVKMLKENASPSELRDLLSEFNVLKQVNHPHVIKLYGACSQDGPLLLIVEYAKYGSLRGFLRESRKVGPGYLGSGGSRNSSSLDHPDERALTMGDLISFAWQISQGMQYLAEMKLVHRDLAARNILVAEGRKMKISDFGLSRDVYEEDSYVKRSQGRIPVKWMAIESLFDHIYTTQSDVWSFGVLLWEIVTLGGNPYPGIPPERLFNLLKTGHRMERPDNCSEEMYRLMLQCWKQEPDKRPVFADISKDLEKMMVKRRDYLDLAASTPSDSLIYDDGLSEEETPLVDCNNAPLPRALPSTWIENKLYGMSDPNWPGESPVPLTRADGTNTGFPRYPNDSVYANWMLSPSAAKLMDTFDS

Chain of ^125I-GDNF (human GDNF from PeproTech EC Ltd. or rat GDNF from C. F. Ibanez) (ligand) (P39905 78-211): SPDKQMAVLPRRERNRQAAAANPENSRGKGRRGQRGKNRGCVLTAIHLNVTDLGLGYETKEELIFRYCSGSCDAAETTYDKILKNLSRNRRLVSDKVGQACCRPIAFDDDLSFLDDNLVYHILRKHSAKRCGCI

“^125I-GDNF (human GDNF from PeproTech EC Ltd. or rat GDNF from C. F. Ibanez) (ligand)” came in with a tyrosine phosphorylation of c-RET in c-ret-3T3 cells, time course at 50 ng/ml GDNF of 5 min and a tyrosine phosphorylation of the 160 kD c-RET isoform in c-ret-3T3 cells, dose-response, 5 min greater than 25 ng/mL.
